Test results from patent US20190040115A1 (IMMATICS BIOTECHNOLOGIES, published 2019).

B1: FLAEAARSL (peptide)
peptide: FLAEAARSL
B2: IIDDKPIGL (peptide)
peptide: IIDDKPIGL
B3: NLQEKVPEL (peptide)
peptide: NLQEKVPEL
B4: LIDEAAQML (peptide)
peptide: LIDEAAQML
B5: SLDEVAVSL (peptide)
peptide: SLDEVAVSL
B6: TLLEVDAIVNA (peptide)
peptide: TLLEVDAIVNA
B7: ELDKIYETL (peptide)
peptide: ELDKIYETL
B8: GTIPLIESL (peptide)
peptide: GTIPLIESL
B9: FMYAGQLTL (peptide)
peptide: FMYAGQLTL
B10: QIDSIHLLL (peptide)
peptide: QIDSIHLLL
B11: SIDDVVKKL (peptide)
peptide: SIDDVVKKL
B12: ALKDLVNLI (peptide)
peptide: ALKDLVNLI
B13: AVDNILLKL (peptide)
peptide: AVDNILLKL
B14: SIIPYLLEA (peptide)
peptide: SIIPYLLEA
B15: FADELSHLL (peptide)
peptide: FADELSHLL
B16: FLDDGNQML (peptide)
peptide: FLDDGNQML
B17: GIDDLHISL (peptide)
peptide: GIDDLHISL
B18: GLDKVITVL (peptide)
peptide: GLDKVITVL
B19: GLDTILQNL (peptide)
peptide: GLDTILQNL
B20: GLLDVMYQV (peptide)
peptide: GLLDVMYQV
B21: HTLPHEIVVNL (peptide)
peptide: HTLPHEIVVNL
B22: IIDPPLHGQLL (peptide)
peptide: IIDPPLHGQLL
B23: ILDGIIREL (peptide)
peptide: ILDGIIREL
B24: ILDNSPAFL (peptide)
peptide: ILDNSPAFL
B25: SLAGLVLYV (peptide)
peptide: SLAGLVLYV
B26: ILDYIHNGL (peptide)
peptide: ILDYIHNGL
B27: ILLDRLFSV (peptide)
peptide: ILLDRLFSV
B28: KLPGFPTQDDEV (peptide)
peptide: KLPGFPTQDDEV
B29: LLAKAVQNV (peptide)
peptide: LLAKAVQNV
B30: LLDAFSIKL (peptide)
peptide: LLDAFSIKL
B31: LLDALQHEL (peptide)
peptide: LLDALQHEL
B32: LLDMSLVKL (peptide)
peptide: LLDMSLVKL
B33: NLDATVTAL (peptide)
peptide: NLDATVTAL
B34: NLPNTNSILGV (peptide)
peptide: NLPNTNSILGV
B35: NLPSELPQL (peptide)
peptide: NLPSELPQL

target: T1, HLA-A*02:01 (human); assay: UV peptide exchange ELISA (anti-b2m); yield grade: + >10%, ++ >20%, +++ >50, ++++ >75%
T1 construct: captured on streptavidin plates; also called peptide-receptive MHC molecules
Summary of the method: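 ELISA (anti-β2m, HRP/TMB, 450 nm) of UV-exchanged HLA-A*02:01 complexes measured exchange yield relative to HLA-A*02:01/MLA-001 standards.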

| Binder | peptide exchange yield |
| --- | --- |
| B1 | > 75% |
| B2 | 50 to 75% |
| B3 | 50 to 75% |
| B4 | 50 to 75% |
| B5 | > 75% |
| B6 | > 75% |
| B7 | 10 to 20% |
| B8 | 10 to 20% |
| B9 | > 75% |
| B10 | 50 to 75% |
| B11 | 20 to 50% |
| B12 | > 75% |
| B13 | 50 to 75% |
| B14 | > 75% |
| B15 | 50 to 75% |
| B16 | 50 to 75% |
| B17 | 50 to 75% |
| B18 | 50 to 75% |

| Binder | peptide exchange yield |
| --- | --- |
| B19 | > 75% |
| B20 | > 75% |
| B21 | 50 to 75% |
| B22 | 20 to 50% |
| B23 | 50 to 75% |
| B24 | 50 to 75% |
| B25 | > 75% |
| B26 | 50 to 75% |
| B27 | > 75% |
| B28 | 20 to 50% |
| B29 | 50 to 75% |
| B30 | 50 to 75% |
| B31 | 50 to 75% |
| B32 | 50 to 75% |
| B33 | 50 to 75% |
| B34 | 50 to 75% |
| B35 | 50 to 75% |
